B1: integrin α4 cytosolic tail (Lys968-Asp999) (domain or fragment)
chain: KAGFFKRQYKSILQEENRRDSWSYINSKSNDD
notes: Used 15N-labelled or unlabelled in the HSQC experiments; also called α4 CT; full-length α4 CT; source: E. coli BL21(DE3), KSI fusion from inclusion bodies, purified (Ni-NTA, cyanogen bromide cleavage, HPLC); not shown: His6, N-terminal, cleaved; ketosteroid isomerase (KSI), N-terminal, cleaved
B2: paxillin fragment residues G139-K277 (PaxLD2-LD4) (domain or fragment)
chain: MGSNLSELDRLLLELNAVQHNPPGFPADEANSSPPLPGALSPLYGVPETNSPLGGKAGPLTKEKPKRNGGRGLEDVRPSVESLLDELESSVPSPVPAITVNQGEMSSPQRVTSTQQQTRISASSATRELDELMASLSDFK
notes: initiation Met introduced before G139; paxillin residues G139-K277, holding the LD2, LD3 and LD4 repeats; Used 15N-labelled or unlabelled; also called recombinant paxillin (residues G139-K277 encompassing LD2-LD4); source: E. coli BL21(DE3), purified (NTA beads, HPLC)
B3: paxillin LD3-containing peptide (peptide)
peptide: VRPSVESLLDELESSVPSPV
notes: paxillin stretch holding the LD3 repeat; also called peptide-containing LD3; source: synthetic peptide, bought: GL Biochem (Shanghai), further purified by reverse phase HPLC
B4: paxillin LD4-containing peptide (peptide)
peptide: ATRELDELMASLSDFKFMAQ
notes: paxillin stretch holding the LD4 repeat; runs four residues (FMAQ) beyond K277, the end of PaxLD2-LD4; also called peptide-containing LD4; source: synthetic peptide, bought: GL Biochem (Shanghai), further purified by reverse phase HPLC

Columns and labels:
Conditions in all cases: both partners purified
[1] = biological target: B2; assay: NMR titration; 15N-1H HSQC of 15N-labelled PaxLD2-LD4 (200 µM) without and with unlabelled α4 CT, molar ratios 1:1 and 1:2; 10 mM sodium phosphate, pH 6.5, 298 K
[2] = biological target: B1; assay: NMR titration; 15N-1H HSQC of 15N-labelled α4 CT (100 µM) without and with unlabelled PaxLD2-LD4, molar ratios 1:1 and 1:2; 10 mM sodium phosphate, pH 6.5, 298 K
[3] = biological target: B1; assay: NMR titration; 15N-1H HSQC of 15N-labelled α4 CT without and with unlabelled synthetic LD-containing peptides, ratio 1:4 (α4 CT:peptides)

Binder | binding result [3] | also measured
B1 |  | binding result [1]: binds
B2 |  | binding result [2]: binds
B3 | binds | 
B4 | binds | 

Reference: publication PMC3561355, “NMR Structure of Integrin α4 Cytosolic Tail and Its Interactions with Paxillin” (PLoS ONE, 2013)
